In IntAct's records for PubMed 16229834:

B1: PRKC apoptosis WT1 regulator protein (Rattus norvegicus (Rat)), Q62627 (parent)
chain: MATGGYRSSGSTTDFLEEWKAKREKMRAKQNPVGPGSSGGDPAAKSPAGPLAQTTAAGTSELNHGPAGAAAPAAPGPGALNCAHGSSALPRGAPGSRRPEDECPIAAGAAGAPASRGDEEEPDSAPEKGRSSGPSARKGKGQIEKRKLREKRRSTGVVNIPAAECLDEYEDDEAGQKERKREDAITQQNTIQNEAASLPDPGTSYLPQDPSRTVPGRYKSTISAPEEEILNRYPRTDRSGFSRHNRDTSAPANFASSSTLEKRIEDLEKEVLRERQENLRLTRLMQDKEEMIGKLKEEIDLLNRDLDDMEDENEQLKQENKTLLKVVGQLTR
partner: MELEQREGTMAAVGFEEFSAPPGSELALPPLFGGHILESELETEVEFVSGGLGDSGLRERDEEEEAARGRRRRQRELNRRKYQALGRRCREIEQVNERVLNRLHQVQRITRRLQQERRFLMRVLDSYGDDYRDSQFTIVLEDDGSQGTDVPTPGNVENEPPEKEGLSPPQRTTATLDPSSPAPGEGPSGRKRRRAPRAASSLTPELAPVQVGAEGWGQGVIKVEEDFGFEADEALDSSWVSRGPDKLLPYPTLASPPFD

Variants of: B1
Conditions: with tfpt_rat Tfpt

| Variant | effect of a mutation on the interaction |
| --- | --- |
| L295A;L316A;L330A | disrupting interaction |
